T1: NDN3 peptide (Plasmodium falciparum)
T1 chain: NANPNVDPNANP

T2: NANP trimer peptide (NANP3) (Plasmodium falciparum)
T2 chain: NANPNANPNANP

T3: DND3 peptide (Plasmodium falciparum)
T3 chain: NVDPNANPNVDP

T4: NPDP peptide (PfCSP aa 101-116) (Plasmodium falciparum NF54)
T4 chain: NPDPNANPNVDPNANP

T5: NANP 5.5-mer peptide, NP(NANP)5 (Plasmodium falciparum)
T5 chain: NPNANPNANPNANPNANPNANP

T6: KQPA peptide (PfCSP aa 95-109) (Plasmodium falciparum NF54)
T6 chain: KQPADGNPDPNANPN

T7: NANP pentamer peptide (NANP5) (Plasmodium falciparum (NF54))
T7 chain: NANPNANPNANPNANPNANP


What was measured:
NDN3 peptide = molecular target: T1, NDN3 peptide; assay: ITC
[1] = molecular target: T2, NANP trimer peptide (NANP3); assay: ITC
DND3 peptide = molecular target: T3, DND3 peptide; assay: ITC
[2] = molecular target: T4, NPDP peptide (PfCSP aa 101-116); assay: SPR
[3] = molecular target: NVDP peptide (PfCSP aa 109-125) (Plasmodium falciparum NF54, UniProt P19597); assay: SPR
Chain of NVDP peptide (PfCSP aa 109-125) (P19597 109-128): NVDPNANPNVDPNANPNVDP

[4] = molecular target: T5, NANP 5.5-mer peptide, NP(NANP)5; assay: SPR
[5] = molecular target: T6, KQPA peptide (PfCSP aa 95-109); assay: SPR
[6] = molecular target: T7, NANP pentamer peptide (NANP5); assay: crystal structure
[7] = molecular target: complete C-terminus of PfCSP (C-CSP) (Plasmodium falciparum NF54, UniProt P19597); assay: SPR

binding result (NDN3 peptide) | binding result [1] | binding result [2] | binding result [4] | Binder | further results
 |  | binds | binds | mAb 2541 (recombinant human IgG1, kappa) (antibody, V domains shown) VH: QVQLVESGGGVVQPGRSLRLSCAASGFTFSSYGMHWVRQTTGKGLEWVAIIWHDGSKKYYADSVKGRLTISRDNSKNTLYLQMNSLRVEDTALYYCARVGDYSDFKYGAFDIWGQGTMVTVSS VL: DIQMTQSPSTLSASVGDRVTITCRASQSISSWLAWYQQKPGKAPNLLIYKASTLESGVPSRFSGSGSGTEFTLTISSLQPDDFATYYCQQYNSYWTFGQGTRVEIK | binding result [5]: binds
no binding | binds |  |  | Fab fragment of mAb 2541 (Fab, V domains shown) VH: QVQLVESGGGVVQPGRSLRLSCAASGFTFSSYGMHWVRQTTGKGLEWVAIIWHDGSKKYYADSVKGRLTISRDNSKNTLYLQMNSLRVEDTALYYCARVGDYSDFKYGAFDIWGQGTMVTVSS VL: DIQMTQSPSTLSASVGDRVTITCRASQSISSWLAWYQQKPGKAPNLLIYKASTLESGVPSRFSGSGSGTEFTLTISSLQPDDFATYYCQQYNSYWTFGQGTRVEIK | binding result [6]: binds

Further lines, the binder ahead of its results:

Binder | binding result (NDN3 peptide) | binding result [1] | binding result [2] | binding result [4] | further results
Fab fragment of mAb 4498 (Fab, V domains shown) VH: QVQLVESGGGVVQPGRSLRLSCAASGFTFSIYGMHWVRQAPGKGLEWVALIWYDGTNKYYTDSVKGRFTISRDNSKNTLFLQMNSVRAEDTAVYYCARDAHYSDSSGYSSWGYFDYWGQGSLVTVSS VL: EIVLTQSPATLSLSPGERATLSCRASQSVSSYLAWYQQKPGQAPRLLIFDASIRATGIPARFSGSGSGTDFTLTISSLEPEDFAVYYCQQRSNWYTFGQGTKLEIK | binds | binds |  |  | binding result (DND3 peptide): binds
mAb 4498 (recombinant human IgG1, kappa) (antibody, V domains shown) VH: QVQLVESGGGVVQPGRSLRLSCAASGFTFSIYGMHWVRQAPGKGLEWVALIWYDGTNKYYTDSVKGRFTISRDNSKNTLFLQMNSVRAEDTAVYYCARDAHYSDSSGYSSWGYFDYWGQGSLVTVSS VL: EIVLTQSPATLSLSPGERATLSCRASQSVSSYLAWYQQKPGQAPRLLIFDASIRATGIPARFSGSGSGTDFTLTISSLEPEDFAVYYCQQRSNWYTFGQGTKLEIK |  |  | binds | binds | binding result [3]: binds
mAb 3246 (recombinant human IgG1, kappa) (antibody, V domains shown) VH: QVQLVESGGGVVQPGRSLRLSCAASGFTFSGSGMHWVRQAPGKGLEWVAIIWYDGSNKFYADSVKGRFTISRDNSKNTLYLQMNSLRGEDTAVYYCARVGDGDGNYMDVWGKGTTVTVSS VL: not shown |  |  |  |  | binding result [7]: binds
